Measurements: patent US20230295293A1, “BINDING MOLECULES AGAINST FRa” (AstraZeneca AB, priority 2022, published 2023)
Numbering of substitutions follows the chain as printed.

B1: AB1370035 (hybridoma IgG) (antibody, V domains shown)
VH: QVQLQQSGPGLVKPSQTLSLTCAISGDSVSSNSAAWNWIRQSPSRGLEWLGRTYYRSNWYNDYTLSVKSRITVNPDTSKNQFSLQLNSVTPEDTAVYYCVRGVGRFDSWGQGTLVTVSS
VL: DIQMTQSPSTLSASVGDRVIITCRASQSISSWLAWYQQKPGKAPKLLIYKASSLESGVPSRFSGSGSGTEFTLTITSLQPDDFASYYCQEYKTYSIFTFGPGTKVDIK
B2: AB1370026 (hybridoma IgG) (antibody, V domains shown)
VH: EVQLVESGGGLVKPGGSLRLSCAASGFTFSSYAMSWVRQAPGKGLEWVSSISSGRSYIYYADSVKGRFTISRDNAKNSLYLKMNSLRDEDTAVYYCAREMQQLALDYWGQGTLVTVSS
VL: DIQMTQSPSSLSASVGDRVTITCRASQGISNFLAWFQQAPGKAPKSLIYAASSLQSGVPSKFSGSGSGTDFTLTISSLQPEDFATYYCQQYNSYPFTFGQGTKLEIK
B3: AB1370095 (hybridoma IgG) (antibody, V domains shown)
VH: EVQLVESGGGLVKPGGSLRLSCAASGFTFSSYSMNWVRQAPGKGLEWVSSISSRSSYVYYADSVKGRFTISRDNAKNSLYLQMNSLRAEDTAVYYCARGMTTLTFDYWGQGTLVTVSS
VL: B2 VL with N31S, A39K, F96L, Q100G, L104V
B4: AB1370083 (hybridoma IgG) (antibody, V domains shown)
VH: B3 VH with S33N, R54G, V58I, V64M, Y80F
VL: B2 VL with N31T, A39K, G68E, N92I, F96L, Q100G, L104V

biological target: Human FRα ECD-Avi-His (human); test: HTRF antigen binding assay; hybridoma supernatant at 25%, 1 nM biotinylated antigen
Sequence (chain, as listed by the source limits assumed): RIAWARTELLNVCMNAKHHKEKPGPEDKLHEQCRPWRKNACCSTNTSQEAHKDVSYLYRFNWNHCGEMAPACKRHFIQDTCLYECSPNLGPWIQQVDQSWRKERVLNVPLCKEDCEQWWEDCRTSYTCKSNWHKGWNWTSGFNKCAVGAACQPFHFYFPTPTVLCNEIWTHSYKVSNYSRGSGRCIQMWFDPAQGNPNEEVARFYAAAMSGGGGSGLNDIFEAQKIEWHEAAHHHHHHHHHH

% Delta F	Binder
225 % Delta F	B1
271 % Delta F	B2
126 % Delta F	B3
140 % Delta F	B4

biological target: Cyno FRα ECD-Avi-His (cynomolgus monkey); test: as above
Sequence (chain, as listed by the source limits assumed): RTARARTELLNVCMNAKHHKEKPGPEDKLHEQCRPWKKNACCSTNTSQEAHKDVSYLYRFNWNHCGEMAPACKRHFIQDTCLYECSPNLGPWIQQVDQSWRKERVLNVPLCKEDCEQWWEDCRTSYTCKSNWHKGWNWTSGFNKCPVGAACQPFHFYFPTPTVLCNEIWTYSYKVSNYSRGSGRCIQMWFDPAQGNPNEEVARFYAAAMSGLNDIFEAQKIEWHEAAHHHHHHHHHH

% Delta F	Binder
141 % Delta F	B1
214 % Delta F	B2
85.3 % Delta F	B3
85.2 % Delta F	B4
